Assays:
[1] = molecular target: RNAP-HrpL holoenzyme (His-tagged) (Pseudomonas syringae pv. actinidiae | not stated) (UniProt P37929); assay: MST; RNAP-HrpL holoenzyme labelled with RED-Tris-NTA, 50 nM, titrated with GST-TrpR2 from 0.38 nM to 25 μM; MST buffer; 25℃; Monolith NT.115, medium MST power, 90 % LED power; triplicate
[2] = molecular target: GST tagged TrpR2 (Pseudomonas syringae pv. actinidiae M228); assay: MST

UniProt P37929, sequence (P37929 whole entry, looked up): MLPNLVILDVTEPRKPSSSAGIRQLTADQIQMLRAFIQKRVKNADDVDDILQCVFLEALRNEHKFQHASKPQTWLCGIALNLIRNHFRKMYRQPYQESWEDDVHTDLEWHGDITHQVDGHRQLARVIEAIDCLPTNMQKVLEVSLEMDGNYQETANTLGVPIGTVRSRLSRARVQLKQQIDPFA

| Substance | Kd [1] [nM] | Kd [2] [µM] |
| --- | --- | --- |
| GST tagged TrpR2 (natural protein) | 2410 | – |
| RNAP-His | – | 7.75 |

— publication PMC12145522
